This note sets out measurements from the supplement of paper PMC11908140.

The chains are these.
B1: library; numbered along this chain (parent)
chain: MRKPRAAVGSGHRKQAASQEGRQKHAKNNSQAKPSACDGLARQPEEVVLQASVSSYHLFRDVAEVTAFRGSLLSWYDQEKRDLPWRRRAEDEMDLDRRAYAVWVSEVMLQQTQVATVINYYTGWMQKWPTLQDLASASLEEVNQLWAGLGYYSRGRRLQEGARKVVEELGGHMPRTAETLQQLLPGVGRYTAGAIASIAFGQATGVVDGNVARVLCRVRAIGADPSSTLVSQQLWGLAQQLVDPARPGDFNQAAMELGATVCTPQRPLCSQCPVESLCRARQRVEQEQLLASGSLSGSPDVEECAPNTGQCHLCLPPSEPWDQTLGVVNFPRKASRKPPREESSATCVLEQPGALGAQILLVQRPNSGLLAGLWEFPSVTWEPSEQLQRKALLQELQRWAGPLPATHLRHLGEVVHTFSHIKLTYQVYGLALEGQTPVTTVPPGARWLTQEEFHTAAVSTAMKKVFRVYQGQQPGTCMGSKRSQVSSPCSRKKPRMGQQVLDNFFRSHISTDAHSLNSAAQ
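Also: cells sorted at 72 h after reporter transfection.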

Variants of B1 are the subject of this data set. The data set is described as follows: 8OG:A repair function score (normalized; synonymous = 0, nonsense = -1) (normalized log-likelihood score); higher = more repair activity (WT-like). To be noted: with 8OG:A DNA repair reporter (GFP) in HEK-293 MUTYH KO cells. In a few lines: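 Lentiviral MUTYH cDNA NNN codon-scan libraries were expressed in MUTYH knockout HEK-293 cells with 10 pg/ml doxycycline, and the cells received an 8OG:A GFP repair reporter together with mCherry. At 72 h, viable mCherry+ cells went into GFP+ (repair) or GFP− bins, three replicates per tile, before tile amplicons were sequenced. A repair function score was then built from per-tile Rosace fitness scores, anchored on the synonymous and nonsense distributions. Synonymous medians sat at 0 and nonsense at -1, and variants under 300 counts per million at the start were left out.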
With MRKPRAAVGSGHRKQAASQEGRQKHAKNNSQAKPSACDGLARQPEEVVLQASVSSYHLFRDVAEVTAFRGSLLSWYDQEKRDLPWRRRAEDEMDLDRRAYAVWVSEVMLQQTQVATVINYYTGWMQKWPTLQDLASASLEEVNQLWAGLGYYSRGRRLQEGARKVVEELGGHMPRTAETLQQLLPGVGRYTAGAIASIAFGQATGVVDGNVARVLCRVRAIGADPSSTLVSQQLWGLAQQLVDPARPGDFNQAAMELGATVCWPQRPLCSQCPVESLCRARQRVEQEQLLASGSLSGSPDVEECAPNTGQCHLCLPPSEPWDQTLGVVNFPRKASRKPPREESSATCVLEQPGALGAQILLVQRPNSGLLAGLWEFPSVTWEPSEQLQRKALLQELQRWAGPLPATHLRHLGEVVHTFSHIKLTYQVYGLALEGQTPVTTVPPGARWLTQEEFHTAAVSTAMKKVFRVYQGQQPGTCMGSKRSQVSSPCSRKKPRMGQQVLDNFFRSHISTDAHSLNSAAQ [T263W], the “8OG:A repair function score” value was -0.28. With MRKPRAAVGSGHRKQAASQEGRQKHAKNNSQAKPSACDGLARQPEEVVLQASVSSYHLFRDVAEVTAFRGSLLSWYDQEKRDLPWRRRAEDEMDLDRRAYAVWVSEVMLQQTQVATVINYYTGWMQKWPTLQDLASASLEEVNQLWAGLGYYSRGRRLQEGARKVVEELGGHMPRTAETLQQLLPGVGRYTAGAIASIAFGQATGVVDGNVARVLCRVRAIGADPSSTLVSQQLWGLAQQLVDPARPGDFNQAAMELGATVCSPQRPLCSQCPVESLCRARQRVEQEQLLASGSLSGSPDVEECAPNTGQCHLCLPPSEPWDQTLGVVNFPRKASRKPPREESSATCVLEQPGALGAQILLVQRPNSGLLAGLWEFPSVTWEPSEQLQRKALLQELQRWAGPLPATHLRHLGEVVHTFSHIKLTYQVYGLALEGQTPVTTVPPGARWLTQEEFHTAAVSTAMKKVFRVYQGQQPGTCMGSKRSQVSSPCSRKKPRMGQQVLDNFFRSHISTDAHSLNSAAQ [T263S] the figure was -0.0723.

As to MRKPRAAVGSGHRKQAASQEGRQKHAKNNSQAKPSACDGLARQPEEVVLQASVSSYHLFRDVAEVTAFRGSLLSWYDQEKRDLPWRRRAEDEMDLDRRAYAVWVSEVMLQQTQVATVINYYTGWMQKWPTLQDLASASLEEVNQLWAGLGYYSRGRRLQEGARKVVEELGGHMPRTAETLQQLLPGVGRYTAGAIASIAFGQATGVVDGNVARVLCRVRAIGADPSSTLVSQQLWGLAQQLVDPARPGDFNQAAMELGATVCVPQRPLCSQCPVESLCRARQRVEQEQLLASGSLSGSPDVEECAPNTGQCHLCLPPSEPWDQTLGVVNFPRKASRKPPREESSATCVLEQPGALGAQILLVQRPNSGLLAGLWEFPSVTWEPSEQLQRKALLQELQRWAGPLPATHLRHLGEVVHTFSHIKLTYQVYGLALEGQTPVTTVPPGARWLTQEEFHTAAVSTAMKKVFRVYQGQQPGTCMGSKRSQVSSPCSRKKPRMGQQVLDNFFRSHISTDAHSLNSAAQ [T263V], the “8OG:A repair function score” value was -0.0463. For the variant MRKPRAAVGSGHRKQAASQEGRQKHAKNNSQAKPSACDGLARQPEEVVLQASVSSYHLFRDVAEVTAFRGSLLSWYDQEKRDLPWRRRAEDEMDLDRRAYAVWVSEVMLQQTQVATVINYYTGWMQKWPTLQDLASASLEEVNQLWAGLGYYSRGRRLQEGARKVVEELGGHMPRTAETLQQLLPGVGRYTAGAIASIAFGQATGVVDGNVARVLCRVRAIGADPSSTLVSQQLWGLAQQLVDPARPGDFNQAAMELGATVCLPQRPLCSQCPVESLCRARQRVEQEQLLASGSLSGSPDVEECAPNTGQCHLCLPPSEPWDQTLGVVNFPRKASRKPPREESSATCVLEQPGALGAQILLVQRPNSGLLAGLWEFPSVTWEPSEQLQRKALLQELQRWAGPLPATHLRHLGEVVHTFSHIKLTYQVYGLALEGQTPVTTVPPGARWLTQEEFHTAAVSTAMKKVFRVYQGQQPGTCMGSKRSQVSSPCSRKKPRMGQQVLDNFFRSHISTDAHSLNSAAQ [T263L], the “8OG:A repair function score” value is -0.0322.

In the case of MRKPRAAVGSGHRKQAASQEGRQKHAKNNSQAKPSACDGLARQPEEVVLQASVSSYHLFRDVAEVTAFRGSLLSWYDQEKRDLPWRRRAEDEMDLDRRAYAVWVSEVMLQQTQVATVINYYTGWMQKWPTLQDLASASLEEVNQLWAGLGYYSRGRRLQEGARKVVEELGGHMPRTAETLQQLLPGVGRYTAGAIASIAFGQATGVVDGNVARVLCRVRAIGADPSSTLVSQQLWGLAQQLVDPARPGDFNQAAMELGATVCRPQRPLCSQCPVESLCRARQRVEQEQLLASGSLSGSPDVEECAPNTGQCHLCLPPSEPWDQTLGVVNFPRKASRKPPREESSATCVLEQPGALGAQILLVQRPNSGLLAGLWEFPSVTWEPSEQLQRKALLQELQRWAGPLPATHLRHLGEVVHTFSHIKLTYQVYGLALEGQTPVTTVPPGARWLTQEEFHTAAVSTAMKKVFRVYQGQQPGTCMGSKRSQVSSPCSRKKPRMGQQVLDNFFRSHISTDAHSLNSAAQ [T263R], the “8OG:A repair function score” value was -0.0312.

As for MRKPRAAVGSGHRKQAASQEGRQKHAKNNSQAKPSACDGLARQPEEVVLQASVSSYHLFRDVAEVTAFRGSLLSWYDQEKRDLPWRRRAEDEMDLDRRAYAVWVSEVMLQQTQVATVINYYTGWMQKWPTLQDLASASLEEVNQLWAGLGYYSRGRRLQEGARKVVEELGGHMPRTAETLQQLLPGVGRYTAGAIASIAFGQATGVVDGNVARVLCRVRAIGADPSSTLVSQQLWGLAQQLVDPARPGDFNQAAMELGATVCPPQRPLCSQCPVESLCRARQRVEQEQLLASGSLSGSPDVEECAPNTGQCHLCLPPSEPWDQTLGVVNFPRKASRKPPREESSATCVLEQPGALGAQILLVQRPNSGLLAGLWEFPSVTWEPSEQLQRKALLQELQRWAGPLPATHLRHLGEVVHTFSHIKLTYQVYGLALEGQTPVTTVPPGARWLTQEEFHTAAVSTAMKKVFRVYQGQQPGTCMGSKRSQVSSPCSRKKPRMGQQVLDNFFRSHISTDAHSLNSAAQ [T263P], the “8OG:A repair function score” value is -0.461.
